In a protein production outcome set (Wang et al. 2014):

assay: label from the status in PepcDB records

Sequence	protein production
MTATQITGVVLAAGRSNRLGTPKQLLPYRDTTVLGATLDVARQAGFDQLILTLGGAASAVRAAMALDGTDVVVVEDVERGCAASLRVALARVHPRATGIVLMLGDQPQVAPATLRRIIDVGPATEIMVCRYADGVGHPFWFSRTVFGELARLHGDKGVWKLVHSGRHPVRELAVDGCVPLDVDTWDDYRRLLESVPSLEHHHHHH	failed
MTDACCLKGNEDKMVPRFGHGTWIGKAFNDTPEMLHERSLRQEKRLERANELMNDDSLQKLETAAMARSRSVDSAPLGNYTIWKNEYRRGKSFEDMLRLMQDQIIMARVYSGLAKFTNNLALHQEIETQLMKLAWEEESTDIDQEQRVLDSIRDMGQILARAHEQLYECKLVTNKLRAMLQTVEDELENEQTYITFLTQLASKALPDAIHCLTMRLNLEYHLLPLPMRNFPRRENLENPKLYHYALFSDNVLAASVVVNSTVMNAQDPSRHVFHLVTDKLNFGAMSMWFLLNPPGEATIHVQRFEDFTWLNSSYSPVLSQLESAAMKKFYFKTARSESVESGSENLKYRYPKYMSMLNHLRFYIPRIFPKLEKILFVDDDVVVQKDLTPLWSIDLKGKVNENFDPKFCGWAYGMNIFDLKEWKKNNITETYHFWQNLNENRTLWKLGTLPPGLITFYNLTQPLQRKWHLLGLGYDKGIDVKKIERSAVIHYNGHMKPWTEMGISKYQPYWTKYTNFDHPYIFTCRLFE	failed
MTDARPHLRLRLARPEDMPALSALMDRAIGELLQDFLPPEGVKASYEIMGLDTQLIADGTYFVVEDGAAIAGCGGWSRRATLFGGDHSAGRDAALLDPKTDAARVRAMYTHPDHTRKGVGRIILDACEAAARAEGFSSVEMAATMGGVPLYRACGYHDIEPFEAVTSTGYRVPLIRMGKAL	failed
MTDIHHQPEQTDDELYRHFFSRGGSLRLLADIQGEDLESLYGYAKQLFDGGEIAAARNVYQLLSTLDHWNFDYLLALGLCHQRLGAHNEAVVCFGRAGLIKVDDPRAAFYAGISYRLDGNAEYASKAFKAAINWCGEQIDYQAIKASAVDMLALQQEEVPC	failed
MTDKFLQFPVIDPIIFSIGPVSLRWYGTMYLIGFLAAMFMANKAADRSNGLWTRDQVSDVLFYGFLGVILGGRVGYVLFYQFEYFLSDPLYLFEIWQGGMSFHGGLLGVILAVFIFARKTNKSFLAVGDFVVPLVPIGLGMGRLGNFINAELWGRQTDVSWAMVFPTDPLQVPRHPSQLYEFALEGVVLFAILYIISRKTRSLGLASGTFLIGYGVFRSIVEFFREPDAHLGLYFSFISKGQILSIPMILAGILIIYLGYLSQQKSAIAQGDKALAAGGKSGKKTVKGNN	failed
MTDLPPPFTTLAAAHRVDAVIDHSEFLAFAERADSPEEALAHLAALRTRYPDATHHCWAYRIGAAYRFGDDGEPGGTAGAPILRAIEGQGVDHVMVVVVRYYGGVKLGTGGLVRAYGGVAAECLRTAPRLDVRPRRTLQVSVPFDHLSGLYHLLGTWDAARGEETYTGAGVTLPVEVYPEDVEAFQAALRDATRGSAVVEEEE	not failed
MTDLWLTLVNSVNAALGEVHVMTAWEALAVVLAMAYLLLAMKASVWCWAAAFTSTAIYTVLFWKVALLMESMLNIYYMGMALYGYWLWTQGGDKHQGVKVTTWPLKTHLKLIAATTLVSLGIGHGMATFTQASFPYLDAATTCFAVMTTYLVAKKVLENWLYWVVIDLVSIYLYLSKGLMLTSLLFVLYVGLAVVGYFLWRTALAESRLNLNGERAAKLLG	failed
MTDQTRTSPLVNRLLKMISLCALGYLLIILAIIIPRGIQSVEQQKQELEEKLALSLSNSAAIALYVNNYDIASEVMDALLLHQEINAVKLASVDGIVFERTTIPSTYKEQNYWSDANRYRLDSPVDGNLIGYLMIHEDHQVIRQQAINQILDQIAVVLIQFLVTFIALIWIVRRLVGKPLTDLSQALSEVRPDHDRKVAVAAEDHHNEIGLVAKSINEFIDASHQALLRERELRQQIERWESYYRTIAEQDTLTGLKNRLGCEKFVLRKQRASTTMVLLLIDLDGFKQVNDTLGHAAGDEVLREIAKRFYALAQTHFSDFVVGRLGGDEFAIYIPLDEFVAESIERFAAQLIESSSEPIGLGQQSAQVGCSIGISHMNSLHIDLEKLLLQADKAMYWVKYRGKHGYHIYRMGEEILPLPSAKELKQDQFR	failed
MTDRAPADKYVVWVVLALSSVGVVAVYSAVTYLAEVRAGTEPVHFLLRHLARVGIALGAMGVVSLIDYRTLARYSRLALVGTLLLLVAVKVVGLFSGGADRWLQIGGVGFQPSEFARVALVLYVAVLLVQKQDYVKSFSRTFLPVLFWVGVTVGLIALDDLSTALVLLLGVLLMSFVGRVSVLQIGGLAVLGGVMAFGVLSTSPDRAARLEAYLGMDLFPNTDTEQVMDARGEQYQSRQARMAFAAGGFTGVGPGKSVQRDFLPEPYNDFIFAIIAEEYGIFGALALLTGFFVLLFRGYLRIARDAPDPLGLILAVGMTTLVVTYGFVHAGVASGLLPVTGLPMPFVSYGGTSLLANGIMIGVLLNISRHAGQRSAERV	failed
MTDRDSLEPISRDELQARVAAGSVLVLDVRPAMEYAAGHLPGAVSIPLDELAERLDELPSGIDIVACCRGPYCVYAYDALELLRPNGFSARRLDGGFSEWLAADLPVVRTLEHHHHHH	not failed
MTDRLERKLAIAANQDKADLLIKNGQIVDVFQLETFEGDVVIADGEIVAISDPGTYEAHEEVDAKGAFIAPAFIDGHVHIESSMVAPEQFAKVVVPHGVTTVIADPHEIANVAGVQGVEYMLDASEGIPLDVKMMVPSCVPATPFEHSGARLTAEEVAELFRDPRIFGLGEVMDYPAVLTRDQEMMAKLKAAHSEGRIVDGHGAGLDSVALNAYTAAGIGNDHEAVTPEEAKARLQRGMYLLIREGTAAKDFDALMKAITPMNSRRALFVTDDKHLDELVEEGSIDHHVRKAIQIGVNPLQAIQMASLNAAECFKLAKKGAIAPGFTADLLFIEDLQSLAITHVFKNGTCVAKNGKLIVPIRETVQPPQRLLESVNMKLVTKEQLELSLQSDEEAHLIQIQPGSIVTKHIREKVAVKDGVFIPSVARDQLKLVVAERHHKRGTVGVGIVKGFGLTKGAIATTVAHDSHNIVAVGTNDEDLLAAIKELENIQGGMTIVKDGKVLVSLPLTIGGLMSDQSYDVVCEQIKSVDAAIGALGFVGDFNPFLTLSFLALPVIPEIKLTDQGLFDVTSFSFIDQQVYAEETN	failed
MTDSTTELTPAAPVSWPDGKTCAVAFTFDVDAESPLLTTDPAFADRMGTMSHQAYGPLVGVPRLLGILDEFNVPGTFFVPGYTAHRHPEPIRSIARAGHEIAHHGYLHESLVGADEDTERKILTRGIEALEEVAGVHPVGYRAPMWEMNWHTPKLLAEFGFLYDSTLMDSDHPYELAVGDGSLVELPVSWALDDWQQYCFVPDFSGTGLIETPAKAIELWRAELNAMRDIGGAWVLTNHPFLSGRPGRAAALREFIAEVCAMDDVWVAGMSQIAEHVRAQKLTPRTLTRPELTPVAE	not failed
MTDSTTLQQPAGANNLYGGLLSAQGLDLDQFETIHTQVQAWKTTAGTDVKFVEARELPIVDVILRFKAGTTQDTLYPGLAALTLSMLDEGSQAYTAAQQAEHLERLGAVMEKQVRLEHATLRLRSLSPPSLLDPALAVFTDLVAHPVFHPMALTRIKRQLLQNHASRERLPILRARSEVFRHLFNGHPYGNPLGSTAQGIEAITPEDLRAFHQRAYSASNLEMVVVGDLSPGQAQAISQQISQALPQGWSATELPAAPSAPSATIAVEQAGASSAILLALPMNVPANDPEFLALALASAVLGEGLESRLMVELRQRRGLTYGVHTHVLPLSAGGLFTVEWEVAPQHVQGTQALVETLLQAFIDEGPTQLELQLARKQLEGQLLRGIAQNRQLATLLTEVTHQRQPADHLDTYSARIAELTPADVRAVMQRRLALSHKVLVSVGPGVQQQPLPAPDQ	failed
MTDTNTLLVTSLEEGIGKTAITLALATRAHDAGYDVGYMKPKGTRLRSAVGKTRDEDPMLARELLDLETDLHDMEPIVYSPTFIQEAIRGREDPDDLRERLQEGIETCSDGTDMLLVEGSSDLATGSIVDLTDIDIAELLDARVLLVTGYDTPSDTDEILSAAEAIGDRLDGVLFNGVTDATVDELADDVVPFLEGEGIPVHGILPRDRSLAGVTVADLARNLGADILTGDANTDVHVERFSVGAMSGSSALERFRRTRDAVVVTGGDRSEVQTAALEASGINALLLTGGFQPASAVIGQAAEKNVPVLSVQSDTRTTIDRVEEVLRTGQTRNEATVDRMRTLLDDGVDVESLLSVDLLEHHHHHH	not failed
MTDTTQRIFLSYAGPDQAWAEWVGWQLQQAGHQVELDRWHWRTGDDFVQKMNLALGKADAVVALFSRHYFEPKRWTREEWSAAVALRGRLVPVAIELLNDDDIPALLAGTLRTDVHGLDEAAATSALLEAVHGPVPPTGPVDFPGAASADAPTAPDAQRPRLPSSVGLPEVWNVRRRNPDFSGRETVMGQLRTGLLSGRQAVVQALHGMGGIGKTQIALEYAHRFASQYDLVWWVDAEQADQLPVRYTELADRLGVAKSDAGSEPNARALLQHLRTRHRWLLVLDNAEHPDQIEPWLPEGPGHVLITSRNPDWHGIAHQSDLDVFTRTDSLAYLKGRISGMTTEHADLLAQDLGDLPLALAQASGVLRSGMTLDRYRRLLTTDTARLLQESDVRDHPAPLAATVGIAVTRLADDGHADAVALLRLGAFLGPEPIPTAWLETARPRLATIPGDPDDPMWLRNALQPLGRFGLARTDYDAFQIHRLTQAILRTQTGPDPVVAIRDDVTAVLAAVDPGDPRSPADWPAWASLTAHLTAPHVTTALAHQAALRATFSKAAHFLICSGLPRAAHDLSAALHQAWSTDLGPDHPDTLTCAQFLGHATVDLGDYAKGRLIIEDTLVRRRRVLGEDHPDTLRSANDTSTNLSLLGERVEARRMHEDVLARRRRVLGEDHPDTLTSAGNLATILNKSGEYVEARRMQEDVLARRRRVLGEDHPDTLTSAHNLAGLLNSLGEHAESRRMQEDVLARRGLVLGEDHPDTLSSASNLATSLNSLGEHAESRRMHEDVLARRGLVLGQDHPDTLSSANKLATSLNGLGEHAEARRMHEDVLARRGVVLGQDHPSTLASAGNLATTLNSLGEHVEAHRMQEDVLARCRRVLGQDHPDTLTSASNLARTLHTLRQYSEAAELLKEVRASYVRHFGAKHPKTELATRNLATVLIAMGKTHEAQQLTGRKSDKGKRRFGRKRR	failed
MTEAIVASVATEPSLRPLAVLLVPLVTVGLIFLSKNRPNIREAWSILAAVTMFGIVASMVPDVLNGRVHETDLGFFVEGIELVLRADGLGMLFALVASGLYVVTAIYSIGYMRGHHEPFQTRFFAMLCASVGAALGVAFASNLFMLLVFYEVLTLATYPLVAHDESEKARVSGYKYLAYALSGGLAVFGGMLAVYWLTDPSTITFTRGGIEGLATVAAADPWAARGAFALLAGGFAVKAAVMPLHSWLPSAMVAPTPVSGLLHAVAVVKAGAFGVARTIIDVFGPETVRQIGMGLPLTIAAGATILIASLFALRQDNLKARLAYSTIAQLSYIVLGLSLLSGMGLMGGLLHIPAHAFSKLTLFLCAGALYVELDVKYISEMAGVGKRMPVTMGAFGLASFSMAGIPLMAGFVSKWHLIWGGAEAGYLLVAPLLVLSGVLNVAYFWPIIYTAFFESEDDADQKPVLDNPFGGVFDDDAYLTDGGVSSDDQHEDDSHDDHHDDGHHARPELPPAGGWDRSNWYGGETTLLLVAPLVTTATLMFIFGVAPDYIVFFDLIEGIVDGALEVDN	failed
MTEARKIPKPSFPYGSPGELNSFLPYLLTRITHIWSSELNQALASEKLPTPKLRLLSSLSAYGELTVGQLATLGVMEQSTTSRTVDQLVDEGLAARSISDADQRKRTVVLTRKGKKKLAEISPLINDFHAELVGNVDPDKLQTCIEVLGEILKGKTDY	not failed
